The text below walks through data of patent US10500249B2, “Compositions and methods for preventing or treating diseases, conditions, or processes characterized by aberrant fibroblast proliferation and extracellular matrix deposition” (MOERAE MATRIX, INC., priority 2014, dated 2019).

Experiment in all cases: Kinase Profiling Assay
Common to all, as to assay type: biochemical
Common to all, as to details: 100 μM

In one experiment the target is Fes (h) (Homo sapiens, UniProt P07332). The essentials: (§1)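 Specificity of MK2 inhibitory peptides is assessed against a panel of 266 human kinases. Kinase transfers a radiolabeled phosphate from ATP onto a positively charged substrate, which is trapped on a negatively charged filter and quantified by scintillation counting against full-activity control; duplicate determinations.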

For a further experiment, the target named is T1, Haspin (h) (Homo sapiens, UniProt Q8TF76).
T1 construct: purchased Millipore
T1 sequence (Q8TF76 1-798): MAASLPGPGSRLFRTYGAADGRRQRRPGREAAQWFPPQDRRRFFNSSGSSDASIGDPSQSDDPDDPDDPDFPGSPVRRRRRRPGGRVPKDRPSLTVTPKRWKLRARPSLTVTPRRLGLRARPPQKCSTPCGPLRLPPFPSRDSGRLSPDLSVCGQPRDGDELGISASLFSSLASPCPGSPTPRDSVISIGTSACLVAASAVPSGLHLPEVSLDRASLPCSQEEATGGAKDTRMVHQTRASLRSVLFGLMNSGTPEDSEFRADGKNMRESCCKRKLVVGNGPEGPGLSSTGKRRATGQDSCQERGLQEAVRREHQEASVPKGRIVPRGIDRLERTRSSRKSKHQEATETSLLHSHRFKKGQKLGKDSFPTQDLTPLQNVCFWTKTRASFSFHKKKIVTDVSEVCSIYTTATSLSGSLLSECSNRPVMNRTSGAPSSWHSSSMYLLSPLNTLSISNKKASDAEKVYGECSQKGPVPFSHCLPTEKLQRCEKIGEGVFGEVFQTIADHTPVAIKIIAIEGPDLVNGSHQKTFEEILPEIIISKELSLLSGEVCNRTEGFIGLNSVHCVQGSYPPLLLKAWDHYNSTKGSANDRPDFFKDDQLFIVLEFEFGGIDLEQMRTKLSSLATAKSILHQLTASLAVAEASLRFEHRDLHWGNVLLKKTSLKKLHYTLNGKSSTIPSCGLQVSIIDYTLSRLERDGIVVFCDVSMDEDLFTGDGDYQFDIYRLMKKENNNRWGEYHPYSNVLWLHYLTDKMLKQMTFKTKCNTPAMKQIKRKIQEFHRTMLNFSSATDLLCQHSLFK
In short, it runs like this: as §1

For another experiment, the target named is T2, Hck (h) activated (Homo sapiens, UniProt P08631).
T2 construct: purchased Millipore
In short, it runs like this:
as §1

In another experiment the target is MELK (h) (Homo sapiens, UniProt Q14680). In short, it runs like this: as §1
A further experiment addresses T3, PDGFRα (h) (Homo sapiens, UniProt P16234).
T3 construct: purchased Millipore
The essentials: as §1

The next experiment has as its target T4, PKCα (h) (Homo sapiens, UniProt P17252).
T4 construct: purchased Millipore
The essentials:
as §1

A further experiment has as its target T5, PKCβII (h) (Homo sapiens, UniProt P05771).
T5 construct: purchased Millipore
The essentials: as §1

In a further experiment the target is PTK5 (h) (Homo sapiens, UniProt P42685). The essentials: as §1
Another experiment addresses T6, Pim-1 (h) (Homo sapiens, UniProt P11309).
T6 construct: purchased Millipore
The essentials:
as §1

The next experiment addresses Ret(V804M) (h) (Homo sapiens, UniProt P07949, V804M). The essentials:
as §1

The target of another experiment is T7, Bmx (h) (Homo sapiens, UniProt P51813).
T7 sequence (P51813 1-675): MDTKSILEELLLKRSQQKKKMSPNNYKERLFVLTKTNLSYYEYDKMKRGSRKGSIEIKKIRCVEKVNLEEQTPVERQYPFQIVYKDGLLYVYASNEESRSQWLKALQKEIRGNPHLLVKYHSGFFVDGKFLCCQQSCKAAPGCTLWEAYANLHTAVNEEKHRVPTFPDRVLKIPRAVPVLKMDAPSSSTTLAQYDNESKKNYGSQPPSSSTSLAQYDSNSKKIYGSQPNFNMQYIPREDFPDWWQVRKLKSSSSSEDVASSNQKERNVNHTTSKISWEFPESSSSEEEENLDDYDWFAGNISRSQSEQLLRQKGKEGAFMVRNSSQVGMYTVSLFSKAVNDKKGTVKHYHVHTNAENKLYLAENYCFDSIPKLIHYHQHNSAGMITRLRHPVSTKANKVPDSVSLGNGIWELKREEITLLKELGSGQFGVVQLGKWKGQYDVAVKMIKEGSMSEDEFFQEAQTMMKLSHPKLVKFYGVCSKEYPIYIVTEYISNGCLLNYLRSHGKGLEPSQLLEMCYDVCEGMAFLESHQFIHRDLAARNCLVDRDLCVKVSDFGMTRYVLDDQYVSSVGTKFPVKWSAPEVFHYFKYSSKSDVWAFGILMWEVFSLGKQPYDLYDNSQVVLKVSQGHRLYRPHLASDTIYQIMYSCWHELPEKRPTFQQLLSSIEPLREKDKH
The essentials:
as §1

T2 sequence (P08631 whole entry): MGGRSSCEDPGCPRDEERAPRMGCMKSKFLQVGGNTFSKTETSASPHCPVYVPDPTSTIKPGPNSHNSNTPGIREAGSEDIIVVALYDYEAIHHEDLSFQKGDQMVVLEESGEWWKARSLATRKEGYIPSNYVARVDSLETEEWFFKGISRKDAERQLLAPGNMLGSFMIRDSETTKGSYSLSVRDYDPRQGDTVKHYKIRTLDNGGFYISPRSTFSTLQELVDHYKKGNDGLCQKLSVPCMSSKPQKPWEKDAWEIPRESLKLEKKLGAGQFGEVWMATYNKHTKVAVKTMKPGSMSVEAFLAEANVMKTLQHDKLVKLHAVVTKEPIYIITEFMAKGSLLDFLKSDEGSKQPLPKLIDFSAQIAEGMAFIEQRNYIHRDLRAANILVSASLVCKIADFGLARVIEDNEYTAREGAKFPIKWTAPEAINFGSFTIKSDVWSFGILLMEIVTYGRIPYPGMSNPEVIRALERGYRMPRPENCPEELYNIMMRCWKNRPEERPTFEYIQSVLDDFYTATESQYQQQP
T6 sequence (P11309 whole entry): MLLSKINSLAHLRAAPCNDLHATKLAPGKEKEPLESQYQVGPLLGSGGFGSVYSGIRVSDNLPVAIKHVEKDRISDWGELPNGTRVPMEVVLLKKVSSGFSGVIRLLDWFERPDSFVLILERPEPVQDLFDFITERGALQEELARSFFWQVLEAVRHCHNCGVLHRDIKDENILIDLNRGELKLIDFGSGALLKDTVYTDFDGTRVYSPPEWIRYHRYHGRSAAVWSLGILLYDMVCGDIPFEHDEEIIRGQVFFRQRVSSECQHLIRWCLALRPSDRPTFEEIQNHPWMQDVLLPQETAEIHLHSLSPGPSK
Chain of PTK5 (h) (P42685 whole entry): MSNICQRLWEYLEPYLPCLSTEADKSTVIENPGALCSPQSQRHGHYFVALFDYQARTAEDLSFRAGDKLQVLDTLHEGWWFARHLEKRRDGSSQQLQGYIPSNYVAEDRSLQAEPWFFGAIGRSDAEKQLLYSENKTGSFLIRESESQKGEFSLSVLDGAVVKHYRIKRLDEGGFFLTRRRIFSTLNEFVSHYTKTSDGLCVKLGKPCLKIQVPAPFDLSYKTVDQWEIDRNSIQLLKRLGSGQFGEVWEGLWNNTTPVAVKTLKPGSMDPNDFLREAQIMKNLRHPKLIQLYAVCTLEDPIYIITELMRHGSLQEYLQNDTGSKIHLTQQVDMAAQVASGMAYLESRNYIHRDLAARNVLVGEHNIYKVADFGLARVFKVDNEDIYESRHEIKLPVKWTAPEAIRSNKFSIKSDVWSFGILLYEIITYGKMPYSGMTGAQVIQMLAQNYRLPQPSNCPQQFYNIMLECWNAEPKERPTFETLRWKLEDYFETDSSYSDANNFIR
T5 sequence (P05771 1-673 isoform P05771-2): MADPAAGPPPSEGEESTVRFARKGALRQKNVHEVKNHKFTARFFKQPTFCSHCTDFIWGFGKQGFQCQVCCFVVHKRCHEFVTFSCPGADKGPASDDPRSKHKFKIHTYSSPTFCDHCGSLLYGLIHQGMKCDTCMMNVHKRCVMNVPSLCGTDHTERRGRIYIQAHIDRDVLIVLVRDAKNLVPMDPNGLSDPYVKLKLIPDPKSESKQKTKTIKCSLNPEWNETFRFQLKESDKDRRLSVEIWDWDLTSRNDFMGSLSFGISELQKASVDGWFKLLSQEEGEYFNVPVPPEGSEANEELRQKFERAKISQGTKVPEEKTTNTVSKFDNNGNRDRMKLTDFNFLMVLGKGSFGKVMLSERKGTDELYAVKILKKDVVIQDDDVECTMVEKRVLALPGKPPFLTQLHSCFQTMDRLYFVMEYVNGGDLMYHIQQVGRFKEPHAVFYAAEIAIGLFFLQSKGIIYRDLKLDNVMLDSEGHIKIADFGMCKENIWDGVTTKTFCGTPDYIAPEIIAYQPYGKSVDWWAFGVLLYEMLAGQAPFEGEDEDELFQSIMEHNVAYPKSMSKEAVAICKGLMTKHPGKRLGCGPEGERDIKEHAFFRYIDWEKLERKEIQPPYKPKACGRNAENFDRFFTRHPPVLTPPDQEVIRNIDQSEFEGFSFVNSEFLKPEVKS
T3 sequence (P16234 24-1089): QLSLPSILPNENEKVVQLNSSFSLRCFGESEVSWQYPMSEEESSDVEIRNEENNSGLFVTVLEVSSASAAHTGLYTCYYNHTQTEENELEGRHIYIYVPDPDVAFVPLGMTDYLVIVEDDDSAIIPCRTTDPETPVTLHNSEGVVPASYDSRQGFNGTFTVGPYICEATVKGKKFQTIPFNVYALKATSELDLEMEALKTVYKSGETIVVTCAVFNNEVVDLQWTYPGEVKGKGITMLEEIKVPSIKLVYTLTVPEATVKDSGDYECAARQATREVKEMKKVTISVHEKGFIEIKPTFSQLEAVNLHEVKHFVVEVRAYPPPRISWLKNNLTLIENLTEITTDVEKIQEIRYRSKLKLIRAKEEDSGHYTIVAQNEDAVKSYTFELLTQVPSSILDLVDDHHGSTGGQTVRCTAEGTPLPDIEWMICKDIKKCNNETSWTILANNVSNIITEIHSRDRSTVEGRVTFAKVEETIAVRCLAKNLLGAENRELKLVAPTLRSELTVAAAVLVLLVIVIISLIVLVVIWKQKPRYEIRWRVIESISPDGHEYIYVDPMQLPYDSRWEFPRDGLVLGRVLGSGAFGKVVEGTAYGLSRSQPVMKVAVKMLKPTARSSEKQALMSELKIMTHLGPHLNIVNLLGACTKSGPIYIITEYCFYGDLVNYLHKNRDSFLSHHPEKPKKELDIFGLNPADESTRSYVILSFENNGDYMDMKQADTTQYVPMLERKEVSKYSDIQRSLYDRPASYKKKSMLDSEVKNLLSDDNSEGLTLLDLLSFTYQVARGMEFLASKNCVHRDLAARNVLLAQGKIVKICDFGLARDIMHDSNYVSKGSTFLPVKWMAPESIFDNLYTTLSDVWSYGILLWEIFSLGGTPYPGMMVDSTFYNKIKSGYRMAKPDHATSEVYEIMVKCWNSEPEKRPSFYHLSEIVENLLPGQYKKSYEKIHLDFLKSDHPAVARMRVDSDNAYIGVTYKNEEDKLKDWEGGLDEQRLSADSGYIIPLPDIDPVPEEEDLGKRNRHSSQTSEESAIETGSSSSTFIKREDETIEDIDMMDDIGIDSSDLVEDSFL
Chain of MELK (h) (Q14680 whole entry): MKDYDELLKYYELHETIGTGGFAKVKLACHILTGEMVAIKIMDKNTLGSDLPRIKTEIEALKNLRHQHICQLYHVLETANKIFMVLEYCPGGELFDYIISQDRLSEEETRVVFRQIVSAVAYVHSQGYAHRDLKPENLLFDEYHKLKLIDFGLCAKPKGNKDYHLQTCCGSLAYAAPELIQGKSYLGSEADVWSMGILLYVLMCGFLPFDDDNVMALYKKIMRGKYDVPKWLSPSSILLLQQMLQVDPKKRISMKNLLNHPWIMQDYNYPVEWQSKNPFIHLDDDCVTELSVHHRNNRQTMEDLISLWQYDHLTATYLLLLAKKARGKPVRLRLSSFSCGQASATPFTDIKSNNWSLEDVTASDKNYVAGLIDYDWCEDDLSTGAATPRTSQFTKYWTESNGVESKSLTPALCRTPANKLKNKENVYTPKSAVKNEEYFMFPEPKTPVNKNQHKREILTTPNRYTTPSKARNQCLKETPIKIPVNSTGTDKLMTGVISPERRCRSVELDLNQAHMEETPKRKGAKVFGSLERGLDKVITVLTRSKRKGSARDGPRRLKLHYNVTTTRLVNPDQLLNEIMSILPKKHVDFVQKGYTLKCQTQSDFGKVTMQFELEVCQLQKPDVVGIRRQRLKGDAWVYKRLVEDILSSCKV

Take FAKLAARLYRKALARQLGVAA [MMI-0300]: the “% activity” value with Fes (h) is 20%; with Haspin (h), 48%; with Hck (h) activated, 82%; in the experiment with MELK (h), 16%; with PDGFRα (h), 65%; with PKCα (h), 89%. Further, the “% activity” value stood at 82% in the experiment with PKCβII (h), 132% with PTK5 (h), 8% in the experiment with Pim-1 (h) and 95% with Ret(V804M) (h).
With KAFAKLAARLYRKALARQLGVAA [MMI-0400], the “% activity” value in the experiment with Bmx (h) was determined as 26%; in the experiment with Fes (h), 16%; with Haspin (h) it was 36%; in the experiment with Hck (h) activated, 81%; in the experiment with MELK (h), 17%; with PDGFRα (h), 40%. Moreover, the “% activity” value with PKCα (h) is listed as 86%; with PKCβII (h) it was 75%; in the experiment with PTK5 (h), 129%; with Pim-1 (h), 7%; with Ret(V804M) (h), 87%.
Regarding “YARAAARQARAKALNRQLGVA (Mammalian) [MMI-0200]”, the “% activity” value is given as 76% with Bmx (h); 74% with Fes (h); 71% in the experiment with Haspin (h); 100% with Hck (h) activated; 59% with MELK (h); 108% with PDGFRα (h). Further, the “% activity” value is 100% with PKCα (h), 100% in the experiment with PKCβII (h), 108% with PTK5 (h) and 18% in the experiment with Pim-1 (h).
As to “HRRIKAWLKKIKALARQLGVAA (Mammalian) [MMI-0500]”, the “% activity” value with Bmx (h) is 45%; in the experiment with Fes (h), 23%; with Haspin (h), 25%; with Hck (h) activated, 67%; with MELK (h), 0%; with PDGFRα (h) it was 40%. The “% activity” value is listed as 3% in the experiment with PKCα (h); 3% with PKCβII (h); 96% in the experiment with PTK5 (h); 0% with Pim-1 (h); 36% in the experiment with Ret(V804M) (h).
